Earlier results in PMC10454195.

Molecular target: GLP-1 receptor (Homo sapiens) (UniProt P43220)
Sequence of UniProt P43220 (P43220 24-463): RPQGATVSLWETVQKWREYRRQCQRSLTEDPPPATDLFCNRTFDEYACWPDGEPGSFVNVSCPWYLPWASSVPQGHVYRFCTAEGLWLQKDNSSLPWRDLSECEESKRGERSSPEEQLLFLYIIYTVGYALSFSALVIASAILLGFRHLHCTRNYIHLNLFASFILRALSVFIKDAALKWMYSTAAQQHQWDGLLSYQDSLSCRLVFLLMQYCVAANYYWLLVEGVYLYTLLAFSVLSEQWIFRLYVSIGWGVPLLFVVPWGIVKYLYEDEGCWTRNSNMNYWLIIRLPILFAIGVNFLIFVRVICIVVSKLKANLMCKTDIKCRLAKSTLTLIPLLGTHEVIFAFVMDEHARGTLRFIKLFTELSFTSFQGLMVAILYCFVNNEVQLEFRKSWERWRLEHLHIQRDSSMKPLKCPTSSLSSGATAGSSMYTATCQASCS

Sequence of GLP-1 (P01275 98-127): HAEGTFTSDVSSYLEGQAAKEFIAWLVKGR

For GLP-1 (from UniProt P01275), the Kd is listed as 5 nM.
